Assay results as given in patent publication US20260116991A1 (HAINAN SIMCERE ZAIMING PHARMACEUTICAL, published 2026).

Key:
[1] = molecular target: T1, human GPC3 on CHO-K1-human GPC3 cells (CHOK1-hGPC3.2B5) (human, UniProt P51654 25-554); assay: FACS, CHOK1-hGPC3.2B5 cells;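 note: flow cytometry of humanized antibodies binding to the cells over one hour in the cold, read as cell mean fluorescence intensity, with EC50 obtained by curve fitting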
T1 construct: whole, on cells
Method: The desired cells were expanded to a logarithmic growth phase in a T-75 cell culture flask, the medium was removed by pipetting, and the cells were washed twice with a PBS buffer, and digested with trypsin. Then a complete medium was added to stop the digestion, and the cells were blown into a single cell suspension. After counting, the cells were centrifuged, and the cell pellet was resuspended with an FACS buffer (PBS+2% fetal bovine serum) to 2×10⁶ cells/mL. The cell resuspension solution was added to a 96-well FACS reaction plate at 50 μl/well, and a humanized antibody sample to be tested was added at 50 μl/well for incubation at 4° C. for 1 h. […] After the plate was centrifuged and washed 3 times with a PBS buffer, 100 μl of the resulting solution was assayed and analyzed by FACS (FACS Canto™, purchased from BD Biosciences). Data analysis was performed by software (FlowJo) to obtain the mean fluorescence intensity (MFI) of the cells. Then, analysis was performed by software (GraphPad Prism8), data were fitted, and EC₅₀ values were calculated.

[2] = molecular target: biotinylated labeled human GPC3 protein (produced in-house) (human, UniProt P51654 25-559, limits assumed, biotinylated (Dojindo, Cat. No. LK03); sites not stated); assay: ELISA, biotinylated human GPC3 protein

Binder | EC50 [1] [nM] | Max MFI [1] [MFI] | OD450 at 0.0008 nM [2] [OD450] | OD450 at 0.004 nM [2] [OD450] | OD450 at 0.02 nM [2] [OD450] | OD450 at 0.11 nM [2] [OD450] | OD450 at 0.53 nM [2] [OD450] | OD450 at 2.67 nM [2] [OD450] | OD450 at 13.33 nM [2] [OD450] | OD450 at 66.66 nM [2] [OD450]
hAb003LH3L1b (antibody, human IgG1, V domains shown, Humanized F2.154.1; VH H3 + VL L1b; expressed as human IgG1) VH: EVQLVQSGAEVKKPGSSVKVSCKASGYRFTDYEMHWVRQAPGQGLEWMGTIDPETGNTAYTQKFMDRVTLTADKSTSTAYMELSSLRSEDTAVYYCTRGYSFTYWGQGTLVTVSS VL: DIVMTQTPLSLPVTPGEPASISCRSSQNIVHSNRNTYLQWYLQKPGQSPQLLIFKVSNRFSGVPDRFSGSGSGTDFTLKISRVEAEDVGVYYCFQGSHVPFTFGQGTKLEIK | 0.647 | 4980 | 0.157 | 0.381 | 1.08 | 2 | 2.54 | 2.44 | 2.59 | 2.61
hAb003LH3L1a (antibody, human IgG1, V domains shown, Humanized F2.154.1; VH H3 + VL L1a; expressed as human IgG1) VH: EVQLVQSGAEVKKPGSSVKVSCKASGYRFTDYEMHWVRQAPGQGLEWMGTIDPETGNTAYTQKFMDRVTLTADKSTSTAYMELSSLRSEDTAVYYCTRGYSFTYWGQGTLVTVSS VL: DIVMTQTPLSLPVTPGEPASISCRSSQNIVHSDGNTYLQWYLQKPGQSPQLLIFKVSNRFSGVPDRFSGSGSGTDFTLKISRVEAEDVGVYYCFQGSHVPFTFGQGTKLEIK | 6.02 | 2240 | 0.086 | 0.128 | 0.423 | 1.3 | 2.04 | 2.13 | 2.15 | 2.48
hAb005LH2L1 (antibody, human IgG1, V domains shown, Humanized F3.54.12; VH H2 + VL L1; expressed as human IgG1) VH: EVQLVQSGAEVKKPGASVKVSCKASGYTFTDYEMHWVRQAPGQGLEWMGAIDPETGNTAYIQKFKGRVTLTTDKSTSTAYMELRSLRSDDTAVYYCTRFYSYSHWGQGTTVTVSS VL: DIVMTQTPLSLPVTPGEPASISCRSSQSLVHSNGNTYLHWYLQKPGQSPQLLIYKVSNRFSGVPDRFSGSGSGTDFTLKISRVEAEDVGVYYCSQNTHVPPTFGGGTKVEIK | 0.736 | 4540 | 0.083 | 0.185 | 0.464 | 0.812 | 1.01 | 1.12 | 1.12 | 1.16
hAb005LH1L1 (antibody, human IgG1, V domains shown, Humanized F3.54.12; VH H1 + VL L1; expressed as human IgG1) VH: EVQLVQSGAEVKKPGASVKVSCKASGYTFTDYEMHWVRQAPGQGLEWMGAIDPETGNTAYIQKFKGRVTMTTDKSTSTAYMELRSLRSDDTAVYYCTRFYSYSHWGQGTTVTVSS VL: DIVMTQTPLSLPVTPGEPASISCRSSQSLVHSNGNTYLHWYLQKPGQSPQLLIYKVSNRFSGVPDRFSGSGSGTDFTLKISRVEAEDVGVYYCSQNTHVPPTFGGGTKVEIK | 0.563 | 4500 | 0.078 | 0.202 | 0.442 | 0.84 | 1.1 | 1.17 | 1.1 | 1.17
hAb005LH1L1a (antibody, human IgG1, V domains shown, Humanized F3.54.12; VH H1 + VL L1a; expressed as human IgG1) VH: EVQLVQSGAEVKKPGASVKVSCKASGYTFTDYEMHWVRQAPGQGLEWMGAIDPETGNTAYIQKFKGRVTMTTDKSTSTAYMELRSLRSDDTAVYYCTRFYSYSHWGQGTTVTVSS VL: DIVMTQTPLSLPVTPGEPASISCRSSQSLVHSDGNTYLHWYLQKPGQSPQLLIYKVSNRFSGVPDRFSGSGSGTDFTLKISRVEAEDVGVYYCSQNTHVPPTFGGGTKVEIK | 315 | 122 | 0.053 | 0.05 | 0.051 | 0.057 | 0.056 | 0.113 | 0.208 | 0.558

Now from value to binder:

EC50 [1] [nM] | Max MFI [1] [MFI] | OD450 at 0.0008 nM [2] [OD450] | OD450 at 0.004 nM [2] [OD450] | OD450 at 0.02 nM [2] [OD450] | OD450 at 0.11 nM [2] [OD450] | OD450 at 0.53 nM [2] [OD450] | OD450 at 2.67 nM [2] [OD450] | OD450 at 13.33 nM [2] [OD450] | OD450 at 66.66 nM [2] [OD450] | Binder
6.16 | 6040 | 0.099 | 0.133 | 0.297 | 0.924 | 1.84 | 2.2 | 2.33 | 2.25 | hAb007LH2L1b (antibody, human IgG1, V domains shown, Humanized F3.81.19; VH H2 + VL L1b; expressed as human IgG1) VH: EVQLVQSGAEVKKPGSSVKVSCKASGYTFTDYEMHWVRQAPGQGLEWMGTIDPETGNTAYNQKFKGRVTITADKSTSTAYMELSSLRSEDTAVYYCTRPYSLTYWGQGTLVTVSS VL: DIVMTQTPLSLPVTPGEPASISCRSSQSFVHSNRDTYLQWYLQKPGQSPQLLIYKVSNRFSGVPDRFSGSGSGTDFTLKISRVEAEDVGVYYCFQGSHVPYTFGQGTKLEIK
0.491 | 4610 | 0.075 | 0.172 | 0.45 | 0.812 | 1.04 | 1.16 | 1.04 | 1.13 | hAb005LH1L1b (antibody, human IgG1, V domains shown, Humanized F3.54.12; VH H1 + VL L1b; expressed as human IgG1) VH: EVQLVQSGAEVKKPGASVKVSCKASGYTFTDYEMHWVRQAPGQGLEWMGAIDPETGNTAYIQKFKGRVTMTTDKSTSTAYMELRSLRSDDTAVYYCTRFYSYSHWGQGTTVTVSS VL: DIVMTQTPLSLPVTPGEPASISCRSSQSLVHSNRNTYLHWYLQKPGQSPQLLIYKVSNRFSGVPDRFSGSGSGTDFTLKISRVEAEDVGVYYCSQNTHVPPTFGGGTKVEIK
7.33 | 6240 | 0.088 | 0.112 | 0.225 | 0.784 | 1.8 | 2.21 | 2.25 | 2.29 | hAb007LH3L1b (antibody, human IgG1, V domains shown, Humanized F3.81.19; VH H3 + VL L1b; expressed as human IgG1) VH: EVQLVQSGAEVKKPGSSVKVSCKASGYTFTDYEMHWVRQAPGQGLEWMGTIDPETGNTAYNQKFKGRVTLTADKSTSTAYMELSSLRSEDTAVYYCTRPYSLTYWGQGTLVTVSS VL: DIVMTQTPLSLPVTPGEPASISCRSSQSFVHSNRDTYLQWYLQKPGQSPQLLIYKVSNRFSGVPDRFSGSGSGTDFTLKISRVEAEDVGVYYCFQGSHVPYTFGQGTKLEIK
6.98 | 6760 | 0.097 | 0.133 | 0.323 | 0.959 | 1.78 | 2.11 | 2.16 | 2.19 | hAb007LH3L1 (antibody, human IgG1, V domains shown, Humanized F3.81.19; VH H3 + VL L1; expressed as human IgG1) VH: EVQLVQSGAEVKKPGSSVKVSCKASGYTFTDYEMHWVRQAPGQGLEWMGTIDPETGNTAYNQKFKGRVTLTADKSTSTAYMELSSLRSEDTAVYYCTRPYSLTYWGQGTLVTVSS VL: DIVMTQTPLSLPVTPGEPASISCRSSQSFVHSNGDTYLQWYLQKPGQSPQLLIYKVSNRFSGVPDRFSGSGSGTDFTLKISRVEAEDVGVYYCFQGSHVPYTFGQGTKLEIK
118 | 153 | 0.049 | 0.049 | 0.053 | 0.048 | 0.066 | 0.148 | 0.249 | 0.589 | hAb005LH2L1a (antibody, human IgG1, V domains shown, Humanized F3.54.12; VH H2 + VL L1a; expressed as human IgG1) VH: EVQLVQSGAEVKKPGASVKVSCKASGYTFTDYEMHWVRQAPGQGLEWMGAIDPETGNTAYIQKFKGRVTLTTDKSTSTAYMELRSLRSDDTAVYYCTRFYSYSHWGQGTTVTVSS VL: DIVMTQTPLSLPVTPGEPASISCRSSQSLVHSDGNTYLHWYLQKPGQSPQLLIYKVSNRFSGVPDRFSGSGSGTDFTLKISRVEAEDVGVYYCSQNTHVPPTFGGGTKVEIK
